Assay results from US12404607.

Legend:
Assay in all cases: ELISA, antigen coated at 2 ug/mL
[1] = target: CoV-2 RBD (N354D) (SARS-CoV-2) (UniProt P0DTC2)
[2] = target: CoV-2 RBD (N354D, D364Y) (SARS-CoV-2) (UniProt P0DTC2)
[3] = target: CoV-2 RBD (V367F) (SARS-CoV-2) (UniProt P0DTC2)
[4] = target: CoV-2 RBD (W436R) (SARS-CoV-2) (UniProt P0DTC2)
[5] = target: CoV-2 S (D614G) (SARS-CoV-2) (UniProt P0DTC2)
[6] = target: CoV-2 S (R683A, R685A) (SARS-CoV-2) (UniProt P0DTC2)

Row | Substance | EC50 [1] | EC50 [2] | EC50 [3] | EC50 [4] | EC50 [5] | EC50 [6]
1 | SARS CoV-2 mAb [SAD-S35] (Acro Biosystems) (antibody) | 0.04 µg/mL | 0.05 µg/mL | 0.04 µg/mL | 0.04 µg/mL | 0.03 µg/mL | 0.05 µg/mL
2 | rCIG (recombinant coronavirus-2 immune globulin; recombinant anti-coronavirus 19 hyperimmune gammaglobulin) | 0.07 µg/mL | 0.08 µg/mL | 0.07 µg/mL | 0.07 µg/mL | 0.05 µg/mL | 0.09 µg/mL
